Laboratory results from patent US20240058465A1 (SUTRO BIOPHARMA, published 2024).

The binders below were run against receptor tyrosine kinase orphan receptor 1 (ROR1) on Ntera-2 cells (human, UniProt Q01973 30-937) (assay: cell-based or functional assay).

Row | Binder | cell killing EC50, NTERA-2 cells [nM] | cell killing Span, NTERA-2 cells [%]
1 | Conjugate 23 (D04 x D04-F404-LP8) (antibody, human IgG1, kappa, pAMF at F404 (EU), linked to LP8) heavy 1: MEVQLVESGGGLVQPGGSLRLSCAASGFNISDYDIHWVRQAPGKGLEWVGGIDPADGSTDYADSVKGRFTISADTSKNTAYLQMNSLRAEDTAVYYCARDYGVYDYWGQGTLVTVSSASTKGPSVFPLAPSSKSTSGGTAALGCLVKDYFPEPVTVSWNSGALTSGVHTFPAVLQSSGLYSLSSVVTVPSSSLGTQTYICNVNHKPSNTKVDKKVEPKSCDKTHTCPPCPAPELLGGPSVFLFPPKPKDTLMISRTPEVTCVVVDVSHEDPEVKFNWYVDGVEVHNAKTKPREEQYNSTYRVVSVLTVLHQDWLNGKEYKCKVSNKALPAPIEKTISKAKGQPREPQVYTLPPSREEMTKNQVSLWCLVKGFYPSDIAVEWESNGQPENNYKTTPPVLDSDGSFLYSKLTVDKSRWQQGNVFSCSVMHEALHNHYTQKSLSLSPGK heavy 2: MEVQLVESGGGLVQPGGSLRLSCAASGFNISDYDIHWVRQAPGKGLEWVGGIDPADGSTDYADSVKGRFTISADTSKNTAYLQMNSLRAEDTAVYYCARDYGVYDYWGQGTLVTVSSASTKGPSVFPLAPSSKSTSGGTAALGCLVKDYFPEPVTVSWNSGALTSGVHTFPAVLQSSGLYSLSSVVTVPSSSLGTQTYICNVNHKPSNTKVDKKVEPKSCDKTHTCPPCPAPELLGGPSVFLFPPKPKDTLMISRTPEVTCVVVDVSHEDPEVKFNWYVDGVEVHNAKTKPREEQYNSTYRVVSVLTVLHQDWLNGKEYKCKVSNKALPAPIEKTISKAKGQPREPQVYTLPPSREEMTKNQVSLSCAVKGFYPSDIAVEWESNGQPENNYKTTPPVLDSDGSFLVSKLTVDKSRWQQGNVFSCSVMHEALHNHYTQKSLSLSPGK light: not shown | 0.022 | 83
2 | Conjugate 25 (D04 x B09-F404-LP8 biparatopic) (bispecific antibody, human IgG1, kappa, pAMF at F404 (EU), linked to LP8) heavy 1: MEVQLVESGGGLVQPGGSLRLSCAASGFNISDYDIHWVRQAPGKGLEWVGGIDPADGSTDYADSVKGRFTISADTSKNTAYLQMNSLRAEDTAVYYCARDYGVYDYWGQGTLVTVSSASTKGPSVFPLAPSSKSTSGGTAALGCLVKDYFPEPVTVSWNSGALTSGVHTFPAVLQSSGLYSLSSVVTVPSSSLGTQTYICNVNHKPSNTKVDKKVEPKSCDKTHTCPPCPAPELLGGPSVFLFPPKPKDTLMISRTPEVTCVVVDVSHEDPEVKFNWYVDGVEVHNAKTKPREEQYNSTYRVVSVLTVLHQDWLNGKEYKCKVSNKALPAPIEKTISKAKGQPREPQVYTLPPSREEMTKNQVSLWCLVKGFYPSDIAVEWESNGQPENNYKTTPPVLDSDGSFLYSKLTVDKSRWQQGNVFSCSVMHEALHNHYTQKSLSLSPGK heavy 2: MEVQLVESGGGLVQPGGSLRLSCAASGFNINNSYIHWVRQAPGKGLEWVGIIDPNNGSTAYADSVKGRFTISADTSKNTAYLQMNSLRAEDTAVYYCARSRWYRVLWSYVLDYWGQGTLVTVSSASTKGPSVFPLAPSSKSTSGGTAALGCLVKDYFPEPVTVSWNSGALTSGVHTFPAVLQSSGLYSLSSVVTVPSSSLGTQTYICNVNHKPSNTKVDKKVEPKSCDKTHTCPPCPAPELLGGPSVFLFPPKPKDTLMISRTPEVTCVVVDVSHEDPEVKFNWYVDGVEVHNAKTKPREEQYNSTYRVVSVLTVLHQDWLNGKEYKCKVSNKALPAPIEKTISKAKGQPREPQVYTLPPSREEMTKNQVSLSCAVKGFYPSDIAVEWESNGQPENNYKTTPPVLDSDGSFLVSKLTVDKSRWQQGNVFSCSVMHEALHNHYTQKSLSLSPGK light: not shown | 0.018 | 87
3 | Conjugate 24 (D04 x C01-F404-LP8 biparatopic) (bispecific antibody, human IgG1, kappa, pAMF at F404 (EU), linked to LP8) heavy 1: MEVQLVESGGGLVQPGGSLRLSCAASGFNISDYDIHWVRQAPGKGLEWVGGIDPADGSTDYADSVKGRFTISADTSKNTAYLQMNSLRAEDTAVYYCARDYGVYDYWGQGTLVTVSSASTKGPSVFPLAPSSKSTSGGTAALGCLVKDYFPEPVTVSWNSGALTSGVHTFPAVLQSSGLYSLSSVVTVPSSSLGTQTYICNVNHKPSNTKVDKKVEPKSCDKTHTCPPCPAPELLGGPSVFLFPPKPKDTLMISRTPEVTCVVVDVSHEDPEVKFNWYVDGVEVHNAKTKPREEQYNSTYRVVSVLTVLHQDWLNGKEYKCKVSNKALPAPIEKTISKAKGQPREPQVYTLPPSREEMTKNQVSLWCLVKGFYPSDIAVEWESNGQPENNYKTTPPVLDSDGSFLYSKLTVDKSRWQQGNVFSCSVMHEALHNHYTQKSLSLSPGK heavy 2: MEVQLVESGGGLVQPGGSLRLSCAASGFNINGYDIHWVRQAPGKGLEWVGYIDPNDGATNYADSVKGRFTISADTSKNTAYLQMNSLRAEDTAVYYCARDYGVFDYWGQGTLVTVSSASTKGPSVFPLAPSSKSTSGGTAALGCLVKDYFPEPVTVSWNSGALTSGVHTFPAVLQSSGLYSLSSVVTVPSSSLGTQTYICNVNHKPSNTKVDKKVEPKSCDKTHTCPPCPAPELLGGPSVFLFPPKPKDTLMISRTPEVTCVVVDVSHEDPEVKFNWYVDGVEVHNAKTKPREEQYNSTYRVVSVLTVLHQDWLNGKEYKCKVSNKALPAPIEKTISKAKGQPREPQVYTLPPSREEMTKNQVSLSCAVKGFYPSDIAVEWESNGQPENNYKTTPPVLDSDGSFLVSKLTVDKSRWQQGNVFSCSVMHEALHNHYTQKSLSLSPGK light: not shown | 0.017 | 85
4 | Conjugate 26 (D04 x A05-F404-LP8 biparatopic) (bispecific antibody, human IgG1, kappa, pAMF at F404 (EU), linked to LP8) heavy 1: MEVQLVESGGGLVQPGGSLRLSCAASGFNISDYDIHWVRQAPGKGLEWVGGIDPADGSTDYADSVKGRFTISADTSKNTAYLQMNSLRAEDTAVYYCARDYGVYDYWGQGTLVTVSSASTKGPSVFPLAPSSKSTSGGTAALGCLVKDYFPEPVTVSWNSGALTSGVHTFPAVLQSSGLYSLSSVVTVPSSSLGTQTYICNVNHKPSNTKVDKKVEPKSCDKTHTCPPCPAPELLGGPSVFLFPPKPKDTLMISRTPEVTCVVVDVSHEDPEVKFNWYVDGVEVHNAKTKPREEQYNSTYRVVSVLTVLHQDWLNGKEYKCKVSNKALPAPIEKTISKAKGQPREPQVYTLPPSREEMTKNQVSLWCLVKGFYPSDIAVEWESNGQPENNYKTTPPVLDSDGSFLYSKLTVDKSRWQQGNVFSCSVMHEALHNHYTQKSLSLSPGK heavy 2: MEVQLVESGGGLVQPGGSLRLSCAASGFNIKEYHIHWVRQAPGKGLEWVGYISPNSGSTYYADSVKGRFTISADTSKNTAYLQMNSLRAEDTAVYYCARDHRRYVRPFDYWGQGTLVTVSSASTKGPSVFPLAPSSKSTSGGTAALGCLVKDYFPEPVTVSWNSGALTSGVHTFPAVLQSSGLYSLSSVVTVPSSSLGTQTYICNVNHKPSNTKVDKKVEPKSCDKTHTCPPCPAPELLGGPSVFLFPPKPKDTLMISRTPEVTCVVVDVSHEDPEVKFNWYVDGVEVHNAKTKPREEQYNSTYRVVSVLTVLHQDWLNGKEYKCKVSNKALPAPIEKTISKAKGQPREPQVYTLPPSREEMTKNQVSLSCAVKGFYPSDIAVEWESNGQPENNYKTTPPVLDSDGSFLVSKLTVDKSRWQQGNVFSCSVMHEALHNHYTQKSLSLSPGK light: not shown | 0.028 | 84
